Reference: article PMC7213983

Assays:
chicken MRP126 (chicken) = chicken MRP126 (chicken) (UniProt P28318); test: SEC-MALS; Superose 12 10/300 GL; samples at 0.5-2 mg/ml in tris buffer (25 mM tris, 100 mM NaCl, pH 7.4) + 0.5 mM CaCl2; flow 0.2 ml/min
human S100A9 (human) = human S100A9 (human) (UniProt P06702); test: as above
[1] = target: human S100A9 M63F (human) (UniProt P06702); test: as above
human S100A12 (human) = human S100A12 (human) (UniProt P80511); test: as above
[2] = target: opossum Toll-like receptor 4 (opossum)

## chicken MRP126 (from UniProt P28318 1-119) (natural protein)
Chicken MRP126 (chicken)
  stoichiometry N: 2

## human S100A9 (from UniProt P06702 1-114) (natural protein)
Human S100A9 (human)
  stoichiometry N: 2

## human S100A9 M63F (from UniProt P06702 1-114) (natural protein)
[1]
  stoichiometry N: 2

## human S100A12 (from UniProt P80511 1-92) (natural protein)
Human S100A12 (human)
  stoichiometry N: 2

## opossum S100A9 (natural protein)
[2]
  NF-κB luciferase reporter in HEK293T cells transfected with opossum TLR4, MD-2 and CD14; activity against that of human A9 (fold of human A9 activity): 0.5
